Experimental data taken from patent US6794491B1, “Polypeptides, their production and use” (Takeda Chemical Industries, Ltd., priority 1995, dated 2004).
Entries after “also recorded” stand apart in the source; their conditions may differ. Where no end group is shown, it is not given here. [ ]: non-standard residue; d: D form. Met(O) = CS(=O)CC[C@H](N)C(=O)O

Experiments:
[1] = molecular target: T1, full-length receptor protein expressed CHO cells (CHO-19P2); human pituitary receptor protein (hGR3) (Homo sapiens, UniProt P49683); experiment: release of arachidonic acid metabolites from CHO-19P2 cells; format: cell-based; details: for arachidonic acid metabolite-releasing activity: amount of [3H]arachidonic acid metabolites, 10^−12 M-10^−6 M in 0.05% BSA-HBSS
T1 construct: to construct a full-length receptor protein expression plasmid pAKKO-19P2; expressed in transfected cells; host or cells: CHO dhfr- cells transfected with pAKKO-19P2 (CHO-19P2; clone CHO-19P2-9)
T1 sequence (P49683 1-370): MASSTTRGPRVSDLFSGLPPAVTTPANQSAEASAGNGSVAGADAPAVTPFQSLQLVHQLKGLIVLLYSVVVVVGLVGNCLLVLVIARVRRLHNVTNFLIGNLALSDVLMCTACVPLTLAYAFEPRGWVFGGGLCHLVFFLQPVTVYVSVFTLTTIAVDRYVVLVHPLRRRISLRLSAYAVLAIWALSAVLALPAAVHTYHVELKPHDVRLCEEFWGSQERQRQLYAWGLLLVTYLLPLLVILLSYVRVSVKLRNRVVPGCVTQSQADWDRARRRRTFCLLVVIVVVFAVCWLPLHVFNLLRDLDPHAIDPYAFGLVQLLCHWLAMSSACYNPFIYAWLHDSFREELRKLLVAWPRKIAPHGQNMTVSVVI
Experimental: The full-length receptor protein-expressed CHO cells and mock CHO cells were seeded in a 24-well plate, 0.5×10^5 cells/well, and cultured for 24 hours. Then, [^3H] arachidonic acid was added at a final concentration of 0.25 μCi/well. Sixteen (16) hours after addition of [^3H] arachidonic acid, the cells were rinsed with 0.05% BSA-HBSS and the above-mentioned crude peptide fraction was added, 400 μl/well. The mixture was incubated at 37° C. for 30 minutes and a 300 μl portion of the reaction mixture (400 μl) was added to 4 ml of a scintillator and the amount of [^3H] arachidonic acid metabolite released into the reaction mixture was determined with a scintillation counter.
The activity of the peptide (19P2-L31) synthesized in Example 21 to specifically release arachidonic acid metabolites from CHO-19P2 cells was assayed in the same manner as Example 11. The synthetic peptide was dissolved in degassed dH20 at a concentration of 10^−3M and diluted with 0.05% BSA-HBSS and the activity to promote release of arachidonic acid metabolites from CHO-19P2 cells at each concentration was assayed using the amount of [^3H]arachidonic acid metabolites as the indicator.
The activity of the synthetic equivalent (19P2-L20) of natural peptide P-2 as synthesized in Example 23 to specifically promote release of arachidonic acid metabolites from CHO-19P2 cells was determined as in Example 11. Thus, the synthetic peptide was dissolved in degassed dH2O at a final concentration of 10^−3M and this solution was serially diluted with 0.05% BAS-HBSS. The activity to specifically promote release of arachidonic acid metabolites from CHO-19P2 cells at each concentration was assayed using the amount of [^3H]arachidonic acid metabolites as the indicator.

[2] = plasma growth hormone (GH) level in freely moving rats, GHRH-induced; format: in vivo, male Wistar rats; details: 5 μg/kg GHRH intravenously
Experimental: Mature male Wistar rats were anesthetized with pentobarbital 50 mg/kg i.p. and, as in Example 41, a stainless-steel guide cannula AG-12 (0.4 mm in. dia., 0.5 mm out. dia., EICOM) was implanted in position with its tip situated in the upper part of the third ventricle. After the operation the rats were housed in individual cages and kept for at least 3 days for recuperation and, then, a cannula (30 cm long, 0.5 mm in. dia., 0.9 mm out. dia., Natsume Seisakusho) filled with heparin (200 U/ml)-containing saline was inserted into the right atrium from the right jugular vein under pentobarbital anesthesia. The rats were maintained overnight for complete arousal from anesthesia and then transferred to transparent acrylic cages (30 cm×30 cm×35 cm). A 1 ml tuberculin syringe with a 24-G needle (both by Termo) was connected to the cannula inserted in the atrium and 300 μl of blood was drawn. To prevent clotting, the syringe was filled with 20 μl of saline containing 200 U/ml of heparin beforehand. […] The concentrations of GH in the plasma were determined by radioimmunoassay.
The results were expressed as a mean±S.E.M. To test for significant difference between the group treated with 19P2-L31 dissolved in PBS and the control group treated with PBS alone, Student's t-test was used. […]

| Substance | arachidonic acid metabolite-releasing activity compared with that of 19P2-L31 [1] | arachidonic acid metabolite-releasing activity [1] | plasma GH level [2] |
| --- | --- | --- | --- |
| 19P2-L31(O): the methionine-oxidation product of 19P2-L31 synthesized in Example 22 (SRAHQHS[Met(O)]EIRTPDINPAWYAGRGIRPVGRF-NH2; N-terminus assumed; SMILES CC[C@H](C)[C@H](NC(=O)CNC(=O)[C@H](CCCNC(=N)N)NC(=O)CNC(=O)[C@H](C)NC(=O)[C@H](Cc1ccc(O)cc1)NC(=O)[C@H](Cc1c[nH]c2ccccc12)NC(=O)[C@H](C)NC(=O)[C@@H]1CCCN1C(=O)[C@H](CC(N)=O)NC(=O)[C@@H](NC(=O)[C@H](CC(=O)O)NC(=O)[C@@H]1CCCN1C(=O)[C@@H](NC(=O)[C@H](CCCNC(=N)N)NC(=O)[C@@H](NC(=O)[C@H](CCC(=O)O)NC(=O)[C@H](CCS(C)=O)NC(=O)[C@H](CO)NC(=O)[C@H](Cc1c[nH]cn1)NC(=O)[C@H](CCC(N)=O)NC(=O)[C@H](Cc1c[nH]cn1)NC(=O)[C@H](C)NC(=O)[C@H](CCCNC(=N)N)NC(=O)[C@@H](N)CO)[C@@H](C)CC)[C@@H](C)O)[C@@H](C)CC)C(=O)N[C@@H](CCCNC(=N)N)C(=O)N1CCC[C@H]1C(=O)N[C@H](C(=O)NCC(=O)N[C@@H](CCCNC(=N)N)C(=O)N[C@@H](Cc1ccccc1)C(N)=O)C(C)C) | equivalent to the activity of 19P2-L31 | found in a dose-dependent manner |  |
| Thr-Pro-Asp-Ile-Aln-Pro-Ala-Trp-Tyr-Ala-Gly-Arg-Gly-Ile-Arg-Pro-Val-Gly-Arg-Phe-NH2 (TPDINPAWYAGRGIRPVGRF-NH2; also: position 5 written 'Aln' in name, letter N) [19P2-L20] | in nearly the same degree as 19P2-L31 | concentration-dependent arachidonic acid metabolite-releasing activity was detected over the range of 10^−12-10^−6M; also recorded: found in a dose-dependent manner |  |
| GHRH: Growth hormone releasing hormone (YADAIFTNSYRKVLGQLSARKLLQDIMSRQQGESNQERGARARL; ends and bridges not checked; UniProt P01286 32-75, looked up) [reference compound] |  |  | elevated the plasma GH level |
